From IntAct's records for PubMed 16785445

B1: Interferon-induced, double-stranded RNA-activated protein kinase (Homo sapiens), P19525 (parent)
chain: MAGDLSAGFFMEELNTYRQKQGVVLKYQELPNSGPPHDRRFTFQVIIDGREFPEGEGRSKKEAKNAAAKLAVEILNKEKKAVSPLLLTTTNSSEGLSMGNYIGLINRIAQKKRLTVNYEQCASGVHGPEGFHYKCKMGQKEYSIGTGSTKQEAKQLAAKLAYLQILSEETSVKSDYLSSGSFATTCESQSNSLVTSTLASESSSEGDFSADTSEINSNSDSLNSSSLLMNGLRNNQRKAKRSLAPRFDLPDMKETKYTVDKRFGMDFKEIELIGSGGFGQVFKAKHRIDGKTYVIKRVKYNNEKAEREVKALAKLDHVNIVHYNGCWDGFDYDPETSDDSLESSDYDPENSKNSSRSKTKCLFIQMEFCDKGTLEQWIEKRRGEKLDKVLALELFEQITKGVDYIHSKKLIHRDLKPSNIFLVDTKQVKIGDFGLVTSLKNDGKRTRSKGTLRYMSPEQISSQDYGKEVDLYALGLILAELLHVCDTAFETSKFFTDLRDGIISDIFDKKEKTLLQKLLSKKPEDRPNTSEILRTLTVWKKSPEKNERHTC
partner: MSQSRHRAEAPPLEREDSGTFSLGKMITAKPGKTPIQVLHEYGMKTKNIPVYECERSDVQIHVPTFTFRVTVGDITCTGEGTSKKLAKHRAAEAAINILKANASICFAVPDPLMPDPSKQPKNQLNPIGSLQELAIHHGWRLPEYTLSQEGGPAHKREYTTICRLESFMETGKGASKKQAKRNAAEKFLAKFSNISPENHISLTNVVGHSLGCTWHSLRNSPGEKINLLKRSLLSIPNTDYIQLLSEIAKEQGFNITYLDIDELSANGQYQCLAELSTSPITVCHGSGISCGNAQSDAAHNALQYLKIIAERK

Variants of: B1
Settings: with PRKRA

effect of a mutation on the interaction | Variant
disrupting interaction strength | MAGDLSAGFFMEELNTYRQKQGVVLKYQELPNSGPPHDRRFTFQVIIDGREFPEGEGRSKKEAKNAAAKLAVEILNKEKKAVSPLLLTTTNSSEGLSMGNYIGLINRIAQKKRLTVNYEQCASGVHGPEGFHYKCKMGQKEYSIGTGSTKQEAKQLAAKLAYLQILSEETSVKSDYLSSGSFATTCESQSNSLVTSTLASESSSEGDFSADTSEINSNSDSLNSSSLLMNGLRNNQRKAKRSLAPRFDLPDMKETKYTVDKRFGMDFKEIELIGSGGFGQVFKAKHRIDGKTYVIKRVKYNNEKAEREVKALAKLDHVNIVHYNGCWDGFDADPETSDDSLESSDYDPENSKNSSRSKTKCLFIQMEFCDKGTLEQWIEKRRGEKLDKVLALELFEQITKGVDYIHSKKLIHRDLKPSNIFLVDTKQVKIGDFGLVTSLKNDGKRTRSKGTLRYMSPEQISSQDYGKEVDLYALGLILAELLHVCDTAFETSKFFTDLRDGIISDIFDKKEKTLLQKLLSKKPEDRPNTSEILRTLTVWKKSPEKNERHTC [Y332A]
disrupting interaction strength | MAGDLSAGFFMEELNTYRQKQGVVLKYQELPNSGPPHDRRFTFQVIIDGREFPEGEGRSKKEAKNAAAKLAVEILNKEKKAVSPLLLTTTNSSEGLSMGNYIGLINRIAQKKRLTVNYEQCASGVHGPEGFHYKCKMGQKEYSIGTGSTKQEAKQLAAKLAYLQILSEETSVKSDYLSSGSFATTCESQSNSLVTSTLASESSSEGDFSADTSEINSNSDSLNSSSLLMNGLRNNQRKAKRSLAPRFDLPDMKETKYTVDKRFGMDFKEIELIGSGGFGQVFKAKHRIDGKTYVIKRVKYNNEKAEREVKALAKLDHVNIVHYNGCWAGFDYDPETSDDSLESSDYDPENSKNSSRSKTKCLFIQMEFCDKGTLEQWIEKRRGEKLDKVLALELFEQITKGVDYIHSKKLIHRDLKPSNIFLVDTKQVKIGDFGLVTSLKNDGKRTRSKGTLRYMSPEQISSQDYGKEVDLYALGLILAELLHVCDTAFETSKFFTDLRDGIISDIFDKKEKTLLQKLLSKKPEDRPNTSEILRTLTVWKKSPEKNERHTC [D328A]
disrupting interaction strength | MAGDLSAGFFMEELNTYRQKQGVVLKYQELPNSGPPHDRRFTFQVIIDGREFPEGEGRSKKEAKNAAAKLAVEILNKEKKAVSPLLLTTTNSSEGLSMGNYIGLINRIAQKKRLTVNYEQCASGVHGPEGFHYKCKMGQKEYSIGTGSTKQEAKQLAAKLAYLQILSEETSVKSDYLSSGSFATTCESQSNSLVTSTLASESSSEGDFSADTSEINSNSDSLNSSSLLMNGLRNNQRKAKRSLAPRFDLPDMKETKYTVDKRFGMDFKEIELIGSGGFGQVFKAKHRIDGKTYVIKRVKYNNEKAEREVKALAKLDHVNIVHYNGCWDGFAYDPETSDDSLESSDYDPENSKNSSRSKTKCLFIQMEFCDKGTLEQWIEKRRGEKLDKVLALELFEQITKGVDYIHSKKLIHRDLKPSNIFLVDTKQVKIGDFGLVTSLKNDGKRTRSKGTLRYMSPEQISSQDYGKEVDLYALGLILAELLHVCDTAFETSKFFTDLRDGIISDIFDKKEKTLLQKLLSKKPEDRPNTSEILRTLTVWKKSPEKNERHTC [D331A]
disrupting interaction strength | MAGDLSAGFFMEELNTYRQKQGVVLKYQELPNSGPPHDRRFTFQVIIDGREFPEGEGRSKKEAKNAAAKLAVEILNKEKKAVSPLLLTTTNSSEGLSMGNYIGLINRIAQKKRLTVNYEQCASGVHGPEGFHYKCKMGQKEYSIGTGSTKQEAKQLAAKLAYLQILSEETSVKSDYLSSGSFATTCESQSNSLVTSTLASESSSEGDFSADTSEINSNSDSLNSSSLLMNGLRNNQRKAKRSLAPRFDLPDMKETKYTVDKRFGMDFKEIELIGSGGFGQVFKAKHRIDGKTYVIKRVKYNNEKAEREVKALAKLDHVNIVHYNGCWDAFDYDPETSDDSLESSDYDPENSKNSSRSKTKCLFIQMEFCDKGTLEQWIEKRRGEKLDKVLALELFEQITKGVDYIHSKKLIHRDLKPSNIFLVDTKQVKIGDFGLVTSLKNDGKRTRSKGTLRYMSPEQISSQDYGKEVDLYALGLILAELLHVCDTAFETSKFFTDLRDGIISDIFDKKEKTLLQKLLSKKPEDRPNTSEILRTLTVWKKSPEKNERHTC [G329A]
disrupting interaction strength | MAGDLSAGFFMEELNTYRQKQGVVLKYQELPNSGPPHDRRFTFQVIIDGREFPEGEGRSKKEAKNAAAKLAVEILNKEKKAVSPLLLTTTNSSEGLSMGNYIGLINRIAQKKRLTVNYEQCASGVHGPEGFHYKCKMGQKEYSIGTGSTKQEAKQLAAKLAYLQILSEETSVKSDYLSSGSFATTCESQSNSLVTSTLASESSSEGDFSADTSEINSNSDSLNSSSLLMNGLRNNQRKAKRSLAPRFDLPDMKETKYTVDKRFGMDFKEIELIGSGGFGQVFKAKHRIDGKTYVIKRVKYNNEKAEREVKALAKLDHVNIVHYNGCWDGFDYAPETSDDSLESSDYDPENSKNSSRSKTKCLFIQMEFCDKGTLEQWIEKRRGEKLDKVLALELFEQITKGVDYIHSKKLIHRDLKPSNIFLVDTKQVKIGDFGLVTSLKNDGKRTRSKGTLRYMSPEQISSQDYGKEVDLYALGLILAELLHVCDTAFETSKFFTDLRDGIISDIFDKKEKTLLQKLLSKKPEDRPNTSEILRTLTVWKKSPEKNERHTC [D333A]
